The labels stand for the following.
B1: TBX5 (parent)
chain: FHEVGTEMIITKAGRRMFPSYKVK
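Further: lentivirally expressed fusions sorted by FACS into six bins by GFP to DsRed ratio, PSI derived from sequencing read proportions per bin multiplied by bin number.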

The variants in the data set derive from B1. Briefly: protein stability index of a GFP-peptide fusion (GPS, HEK-293T) (PSI 1-6); higher = more stable. The conditions noted are these: c terminus: a fixed tail appended.
On to FHEVGTEMIITKAGRRMKPSYKVK [F18K], for which the protein stability index is 1.94. For the variant FHEVGTEMIITKAGRRMQPSYKVK [F18Q], the protein stability index came to 2.58. The result for FHEVGTEMIITKAGRRMMPSYKVK [F18M] reads 2.23; that for FHEVGTEMIITKAGRRMYPSYKVK [F18Y], 2.07; that for FHEVGTEMIITKAGRRMPPSYKVK [F18P], 2.11. For FHEVGTEMIITKAGRRMHPSYKVK [F18H], the protein stability index was 3.08.

On to FHEVGTEMIITKAGRRMLPSYKVK [F18L], for which the protein stability index was 2.51.

Turning to FHEVGTEMIITKAGRRMIPSYKVK [F18I], the protein stability index was 2.07.

For FHEVGTEMIITKAGRRMEPSYKVK [F18E], the protein stability index was 2.34. The result for FHEVGTEMIITKAGRRMAPSYKVK [F18A] reads 2.76. In the case of FHEVGTEMIITKAGRRMWPSYKVK [F18W], the protein stability index worked out at 1.8.

On to FHEVGTEMIITKAGRRMCPSYKVK [F18C], for which the protein stability index came to 2.61. The result for FHEVGTEMIITKAGRRMSPSYKVK [F18S] reads 2.41; that for FHEVGTEMIITKAGRRMNPSYKVK [F18N], 2.07; that for FHEVGTEMIITKAGRRMRPSYKVK [F18R], 1.76. For FHEVGTEMIITKAGRRMGPSYKVK [F18G], the protein stability index turned out to be 2.25. Consider FHEVGTEMIITKAGRRMVPSYKVK [F18V], for which the protein stability index worked out at 2.01. As to FHEVGTEMIITKAGRRMTPSYKVK [F18T], the protein stability index came out at 1.92.

For FHEVGTEMIITKAGRRMFKSYKVK [P19K], the protein stability index was 3.38.

For FHEVGTEMIITKAGRRMFWSYKVK [P19W], the protein stability index was found to be 1.75. The result for FHEVGTEMIITKAGRRMFCSYKVK [P19C] reads 2.53. For FHEVGTEMIITKAGRRMFISYKVK [P19I] the value was 2.23; for FHEVGTEMIITKAGRRMFVSYKVK [P19V], 1.77. The result for FHEVGTEMIITKAGRRMFESYKVK [P19E] reads 2.19; that for FHEVGTEMIITKAGRRMFHSYKVK [P19H], 1.09; that for FHEVGTEMIITKAGRRMFTSYKVK [P19T], 2.1. Consider FHEVGTEMIITKAGRRMFGSYKVK [P19G], for which the protein stability index stood at 2. The result for FHEVGTEMIITKAGRRMFFSYKVK [P19F] reads 1.79; that for FHEVGTEMIITKAGRRMFRSYKVK [P19R], 2.89; that for FHEVGTEMIITKAGRRMFDSYKVK [P19D], 2.2. As for FHEVGTEMIITKAGRRMFQSYKVK [P19Q], the protein stability index was 1.98. The result for FHEVGTEMIITKAGRRMFLSYKVK [P19L] reads 1.74; that for FHEVGTEMIITKAGRRMFSSYKVK [P19S], 2.72. As for FHEVGTEMIITKAGRRMFASYKVK [P19A], the protein stability index turned out to be 2. The result for FHEVGTEMIITKAGRRMFMSYKVK [P19M] reads 1.4. FHEVGTEMIITKAGRRMFYSYKVK [P19Y]: the protein stability index came to 3.12.

For FHEVGTEMIITKAGRRMFNSYKVK [P19N], the protein stability index was 1.61. For FHEVGTEMIITKAGRRMFPRYKVK [S20R] the value was 2.61; for FHEVGTEMIITKAGRRMFPNYKVK [S20N], 2.06. Consider FHEVGTEMIITKAGRRMFPEYKVK [S20E], for which the protein stability index was 2.02.

On to FHEVGTEMIITKAGRRMFPKYKVK [S20K], for which the protein stability index worked out at 2.18. On to FHEVGTEMIITKAGRRMFPHYKVK [S20H], for which the protein stability index worked out at 2.31. With FHEVGTEMIITKAGRRMFPIYKVK [S20I], the protein stability index was found to be 2.54. For FHEVGTEMIITKAGRRMFPLYKVK [S20L] the value was 1.86.

Take FHEVGTEMIITKAGRRMFPAYKVK [S20A]: the protein stability index was 1.89. With FHEVGTEMIITKAGRRMFPCYKVK [S20C], the protein stability index amounted to 3.1.

As for FHEVGTEMIITKAGRRMFPMYKVK [S20M], the protein stability index is 2.67. As to FHEVGTEMIITKAGRRMFPDYKVK [S20D], the protein stability index came to 2.18. For FHEVGTEMIITKAGRRMFPPYKVK [S20P], the protein stability index came out at 2.42. For FHEVGTEMIITKAGRRMFPGYKVK [S20G] the value was 1.93; for FHEVGTEMIITKAGRRMFPQYKVK [S20Q], 2.83.

Consider FHEVGTEMIITKAGTRMFPSYKVK [R15T], for which the protein stability index was 2.21.

Consider FHEVGTEMIITKAGQRMFPSYKVK [R15Q], for which the protein stability index was determined as 2.2. The result for FHEVGTEMIITKAGYRMFPSYKVK [R15Y] reads 2.58; that for FHEVGTEMIITKAGPRMFPSYKVK [R15P], 1.87. As for FHEVGTEMIITKAGWRMFPSYKVK [R15W], the protein stability index came out at 1.53. The result for FHEVGTEMIITKAGVRMFPSYKVK [R15V] reads 1.72. For FHEVGTEMIITKAGSRMFPSYKVK [R15S], the protein stability index is 1.69. With FHEVGTEMIITKAGRRIFPSYKVK [M17I], the protein stability index was 1.98. FHEVGTEMIITKAGRRSFPSYKVK [M17S]: the protein stability index was 2.68. The result for FHEVGTEMIITKAGRRAFPSYKVK [M17A] reads 2.38; that for FHEVGTEMIITKAGRRPFPSYKVK [M17P], 1.84; that for FHEVGTEMIITKAGRRFFPSYKVK [M17F], 2.

For FHEVGTEMIITKAGRRKFPSYKVK [M17K], the protein stability index was 2.11.

Regarding FHEVGTEMIITKAGRRRFPSYKVK [M17R], the protein stability index stood at 2.57.

For FHEVGTEMIITKAGRRCFPSYKVK [M17C], the protein stability index turned out to be 2.05. For FHEVGTEMIITKAGRRVFPSYKVK [M17V] the value was 1.63; for FHEVGTEMIITKAGRRDFPSYKVK [M17D], 2.28. For FHEVGTEMIITKAGRRGFPSYKVK [M17G] the value was 1.67; for FHEVGTEMIITKAGRRTFPSYKVK [M17T], 1.98. For FHEVGTEMIITKAGRRLFPSYKVK [M17L] the value was 2.27; for FHEVGTEMIITKAGRRHFPSYKVK [M17H], 1.71.

As to FHEVGTEMIITKAGRRNFPSYKVK [M17N], the protein stability index was 1.87. The result for FHEVGTEMIITKAGRREFPSYKVK [M17E] reads 2.83.

In the case of FHEVGTEMIITKAGRRQFPSYKVK [M17Q], the protein stability index is 2.5.

Consider FHEVGTEMIITKAGRRYFPSYKVK [M17Y], for which the protein stability index stood at 2.44. For FHEVGTEMIITKAGRSMFPSYKVK [R16S] the value was 1.75; for FHEVGTEMIITKAGRGMFPSYKVK [R16G], 2.43; for FHEVGTEMIITKAGRDMFPSYKVK [R16D], 2.15. For FHEVGTEMIITKAGRHMFPSYKVK [R16H] the value was 2.02; for FHEVGTEMIITKAGRLMFPSYKVK [R16L], 2.09. On to FHEVGTEMIITKAGREMFPSYKVK [R16E], for which the protein stability index was 2.38. For FHEVGTEMIITKAGRNMFPSYKVK [R16N] the value was 2.54; for FHEVGTEMIITKAGRTMFPSYKVK [R16T], 2.03; for FHEVGTEMIITKAGRAMFPSYKVK [R16A], 1.91. The result for FHEVGTEMIITKAGRPMFPSYKVK [R16P] reads 2.11. For the variant FHEVGTEMIITKAGRVMFPSYKVK [R16V], the protein stability index is 1.54. Turning to FHEVGTEMIITKAGRCMFPSYKVK [R16C], the protein stability index came out at 1.59. As for FHEVGTEMIITKAGRMMFPSYKVK [R16M], the protein stability index turned out to be 1.96. As to FHEVGTEMIITKAGRKMFPSYKVK [R16K], the protein stability index is 2.65. For the variant FHEVGTEMIITKAGRQMFPSYKVK [R16Q], the protein stability index came to 1.85. Consider FHEVGTEMIITKAGRYMFPSYKVK [R16Y], for which the protein stability index turned out to be 1.92. With FHEVGTEMIITKAGRFMFPSYKVK [R16F], the protein stability index came to 2.31. For FHEVGTEMIITKAGRIMFPSYKVK [R16I], the protein stability index was found to be 1.81.

The record behind these values is the supplement of paper PMC10567573.
